# Data: patent US20210040189A1 (Amgen, published 2021)
# Substitutions are numbered along the chain they refer to.
# T1: human DKK1 (human, UniProt O94907 32-266)
# T1 sequence: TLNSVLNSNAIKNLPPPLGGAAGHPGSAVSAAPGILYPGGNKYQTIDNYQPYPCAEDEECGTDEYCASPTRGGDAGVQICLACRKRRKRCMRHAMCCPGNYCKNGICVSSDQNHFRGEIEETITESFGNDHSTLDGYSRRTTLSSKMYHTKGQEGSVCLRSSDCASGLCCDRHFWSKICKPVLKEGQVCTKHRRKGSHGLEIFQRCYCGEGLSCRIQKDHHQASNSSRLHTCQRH
# T2: mouse DKK1 (mouse, UniProt O54908 32-272)
# T2 construct: also called murine DKK1
# T2 sequence: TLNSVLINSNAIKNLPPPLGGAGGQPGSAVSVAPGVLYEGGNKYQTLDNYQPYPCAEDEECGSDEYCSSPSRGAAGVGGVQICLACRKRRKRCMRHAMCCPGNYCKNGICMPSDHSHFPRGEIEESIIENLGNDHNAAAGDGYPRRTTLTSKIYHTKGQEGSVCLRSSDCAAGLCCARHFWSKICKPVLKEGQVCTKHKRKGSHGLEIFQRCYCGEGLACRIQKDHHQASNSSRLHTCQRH
# B1: 2.20.1 (antibody, V domains shown)
# VH: QVQLVESGGGVVQPGRSLRLSCAASGFTFSSYGMHWVRQAPGKGLEWVAVISYDGSDKYYADSVKGRFTISRDNSKNTLYLQMNSLRAEDTAVYYCARDQWGGSPAGPWGQGTLVTVSS
# VL: DIVMTQTPLSLSVIPGQPASISCKSSQSLLHSDGKTYLYWYLQRPGQPPQLLIYEVSNRFSGVPHRLSGSGSGTDFTLKISRVEAEDVGVYYCMQSIQVPWTFGQGTKVEIK
# notes: Fully human hybridoma IgG, kappa (Vk)
# B2: 2.41.1 (antibody, V domains shown)
# VH: QVQLVESGGGVVQPGRSLRLSCAASGFTFSSYGMHWVRQAPGKGLEWVAVISYDGSDKYYADSVKGRFTISRDNSKNTLYLQMNSLRAEDTAVYYCARAGYSLYYYYGMDVWGQGTTVTVSS
# VL: B1 VL with I14T, R44K, H65D, L67F, I97K, V99L, W101F, Q105P, E110D
# notes: as for B1
# B3: 6.139.5 (antibody, V domains shown)
# VH: QVQLVESGGGVVQPGRSLRLSCAASGFTFSSYGMHWVRQAPGKGLEWVAVISYDGGDQYYADSVKGRFTISRDNSKNTLYLQMNSLRTEDTAEYYCARELRVLWGQGTLVTVSS
# VL: B1 VL with I14T, G16R, R44K, L51F, H65D, L67F, V99L
# notes: as for B1
# B4: 5.17.1 (antibody, V domains shown)
# VH: QVQLQESGPGLVKPSETLSLTCTVSGGSISSYYWSWIRQPPGKGLEWIGYIYYSGNTNYNPSLKSRVTISVDTSKNQFSLKLRSVTAADTAVYYCARYNWNNDLFDYWGQGTLVTVSS
# VL: DIQMTQSPSSLSASVGDRVTITCQASQDINNYLNWYQQKPGKAPNLLIYDASNLETGVPSRFSGSGSGTDFTFTISSLQPADIATYYCQQYDDFPLTFGGGTKVEIK
# notes: as for B1
# B5: 5.31.1 (antibody, V domains shown)
# VH: QVQLVESGGGVVQPGRSLRLSCAASGFTFSSYGMHWVRQAPGKGLEWVAVIWYDGRNKYYADSVKGRFTISRDNSKNTLYLQMNSLRAEDTAVYYCARGGGAVADYNYYYGMDVWGQGTTVTVSS
# VL: B4 VL with M4V, N30S, N45K, L46F, T56A, A81E, D93N, F94L
# notes: as for B1
# B6: 5.40.1 (antibody, V domains shown)
# VH: B4 VH with Q3L, P40T, I51V, N56S, N58S, V71M, D72Y, N76T, Q77E, R83S
# VL: B4 VL with Q3R, M4L, N30S, K39E, N45K, A81E, D93N
# notes: as for B1
# B7: 6.147.4 (antibody, V domains shown)
# VH: QVQLVESGGGVVQPGRSLRLSCAASGFTFSRYDMHWVRQAPGKGLEWVAIIFYDGSNKYYADPVKGRFTISRDNSKNTLYLQMNSLRAEDTAVYYCATLAAAFDYWGQGTLVTVSS
# VL: YVLTQPPSVSVAPGQTARITCGGNNIGSKSVHWYQQKPGQAPVLVVYDDSDRPSEIPERFSGSNSGNTATLTISRVEAGDEADYYCQVWDSSSDHVVFGGGTRLTVL
# notes: Fully human hybridoma IgG, lambda (Vl)
# B8: 5.80.1 (antibody, V domains shown)
# VH: EVQLVQSGAEVKKPGESLKISCKGSGYSFTSYWIGWVRQMPGKGLEWMGIIYPGDSDTRYSPSFQGQVTISADKSISTAYLQWSSLTASDTAMYYCARQGESFDYWGQGTLVTVSS
# VL: QSVLTQPPSVSGAPGQRVTISCTGSSSNIGADYDVHWYQQLPGTAPKLLIYDYSNRPSGVPDRFSGSKSGTSASLAITGLQAEDEADYYCQSYDNSLSGYVVFGGGTKLTVL
# notes: as for B7
# B9: 5.85.1 (antibody, V domains shown)
# VH: B8 VH with G24V, S31T, E46D, T87K, E101I, S102A
# VL: QSVLTQPPSVSGAPGQRVTISCTGSSSNIGAGYDVHWYQQLPRTAPKLLIYGNSNRPSGVPDRFSDSKSGTSASLAITGLQAEDEADYYCQSYDSSLSVIFGGGTKLTVL
# B10: 5.23.1 (antibody, V domains shown)
# VH: QVQLVESGGGVVQPGRSLRLSCAASGFTFSSYGMHWVRQAPGKGLEWVAVIWCDGSNKYYADSVKGRFTISRDSSKNTLYLQMNSLRAEDTAVYYCARGGYGSGSYEDYYYGMDVWGQGTTVTVSS
# VL: not shown
# B11: 2.47.1 (antibody, V domains shown)
# VH: QVQLQESGPGLVKPSQTLSLTCTVSGGSISSGGYYWSWIRQHPGKGLEWIGDIYYSGSTYYNPSLKSRVTISVDTSKNQFSLKLSSVTAADTAVYYCARDRAYGDYGGDYYYGMDVWGQGTTVTVSS
# VL: DIVMTQTPLSLPVTPGEPASISCRSSQSLLDSDDGDTYLDWYLQKPGQSPQLLIYTLSYRASGVPDRFSGSGSGTDFTLKISRVEAEDVGVYYCMQRIEFPFTFGPGTKVDIK
# notes: as for B1
# B12: 5.77.1 (antibody, V domains shown)
# VH: QVQLVQSGAEVKKPGASVKVSCKASGYTFTSYDINWVRQATGQGLEWMGWMNLNSDNTGYAQKFQGRVTMTRNTSISTAYMELSSLRSEDTAVYYCASIAARRDYNYYGMDVWGQGTKVTVSS
# VL: QSPSVSVAPGQTARITCGGNNIGSKSVHWYQQKPGQAPVLVVYDDSDRPSGIPERFSGSNSGNTATLTISRVEAGDEADYYCQVWDSSSDHWVFGGGTKLTVL
# notes: as for B7
# B13: 5.65.1 (antibody, V domains shown)
# VH: EVQLLESGGGLVQPGGSLRLSCAASGFTSGNYAMSWVRQAPGKGLEWVSAISGGGGTTYYADSVEGRFTISRDNSKNTLYLQLNSLRAEDTAVYYCAKEFGELEPRFDYWGQGTLVTVSS
# VL: SYVLTQPPSVSVAPGQTARITCGGNNIGSKSVHWYQQKPGQAPVLVVYDDSDRPSGIPERFSGSNSGNTATLTISRVEAGDEADYYCQVLDSSSDHVIFGGGTKLTVL
# notes: as for B7
# B14: 5.76.1 (antibody, V domains shown)
# VH: QLQLQESGPGLVKPSETLSLTCTVSGGSISSSNYYWGWIRQPPGKGLEWIGTIYYSGSTYYTPSLKSRVTISVDTSKNQFSLKLSSVTAADTAVYYCARERAIAVAAIVFFDYWGQGTLVTVSS
# VL: B13 VL with K30E, L90W, S94N, I98V
# notes: as for B7
# B15: 2.4.1 (antibody, V domains shown)
# VH: QVQLMQSGAEVKKPGASVKVSCKASGYTFTSYGISWVRQAPGQGLEWMGWISADNGHTNYAQKLQGRVTMTTDTSTSTAYMELRSLRSDDTAVYYCARDGELLNYYYYYGMDVWGQGTTVTVSS
# VL: DIQMTQSPSSLSASVGDRVTITCRASQGIRDDLGWFQQKPGKAPKRLIYAASSLQSGVPSRFSGSGSGTEFTLTISSLQPEDFATYYCLQHNSYPCSFGQGTKLEFK
# notes: as for B1
# B16: 5.78.1 (antibody, V domains shown)
# VH: B5 VH with W52L, R56S, N57D, K58N, G99E, G101I, D105G, Y106D, N107Y
# VL: EIVLTQSPGTLSVSPGERATLSCRASQSVSSSYLAWYQQKPGQAPRLLIYGASGRATGIPDRFSGSGSGTDFILTISRLEPEDFAVYYCQQYGSSFTFGGGTKVEIK
# notes: as for B1
# Target: T1, human DKK1
# Assay: cell-based or functional assay
Binder,ST2 EC50,TCF EC50
B1,34.7 nM,10.7 nM
B2,89.1 nM,32.1 nM
B3,3.93 nM,9.78 nM
B4,8.24 nM,3.48 nM
B5,10.4 nM,5.29 nM
B6,7.24 nM,3.75 nM
B7,2.57 nM,3.95 nM
B8,5.03 nM,3.22 nM
B9,10.6 nM,4.53 nM
B10,4.29 nM,1.01 nM
B11,,60.7 nM
B12,6.23 nM,2.14 nM
B13,5.87 nM,4.21 nM
B14,4.09 nM,2.55 nM
B15,17.2 nM,38.6 nM
B16,5.7 nM,3.75 nM

# Target: T1, human DKK1
# Assay: KinExA 3000 equilibrium binding in solution
# Experimental: (§1) Accordingly, the affinity of several of these antibodies to DKK1 was further assessed by an equilibrium binding analysis using the more sensitive KinExAtm 3000. For these measurements, Reacti-Gel 6× beads (Pierce, Rockford, Ill.) were pre-coated with human, cynomologous or mouse DKK1 and blocked with BSA. One hundred pM, 300 pM, or 1000 pM of the antibody was mixed with various concentrations of human, mouse or cyno DKK1, ranging in concentration from 1 pM to 50 nM, and equilibrated at room temperature for 8 hours. The mixtures were then passed over the DKK1-coated beads. The amount of bead-bound anti-DKK1 antibody was quantified using goat anti-human-IgG antibody labeled with a fluorescent tag (Cy5; Jackson Immuno Research, West Grove, Pa.). The amount of fluorescent signal measured was proportional to the concentration of free anti-DKK1 antibody in each reaction mixture at equilibrium. The dissociation equilibrium constant (Kd) was obtained from nonlinear regression of the competition curves using a dual-curve one-site homogeneous binding model using the KinExA software.
row,Binder,Kd
1,B3,0.11 nM
2,B7,0.125 nM
3,B8,0.06 nM
4,B12,0.008 nM

# Target: T2, mouse DKK1
# Assay: KinExA 3000 equilibrium binding in solution
# Experimental: as §1
row,Binder,Kd
1,B8,0.025 nM
2,B12,0.14 nM

# Target: T1, human DKK1
# Assay: BiaCore 2000
# Source text: BiaCore allowed us to determine the kd of the selected antibodies.
row,Binder,koff
1,B1,0.00024 s⁻¹
2,B2,0.0013 s⁻¹
3,B3,0.000209 s⁻¹
4,B4,0.000303 s⁻¹
5,B5,0.000105 s⁻¹
6,B6,0.000281 s⁻¹
7,B7,0.000251 s⁻¹
8,B8,< 2e-05 s⁻¹
9,B10,0.000181 s⁻¹
10,B11,0.00092 s⁻¹
11,B12,< 2e-05 s⁻¹
12,B13,0.000525 s⁻¹
13,B14,0.000241 s⁻¹
14,B15,0.0006 s⁻¹
15,B16,0.000191 s⁻¹
